{"source": "patent US12162911B2", "about": "“Pulmonary administration of pyocins for treating bacterial respiratory infections” (priority 2014, dated 2024)", "molecules": {"B1": {"name": "Pyocin S5: S-type pyocin, SEQ ID NO: 13; binds FptA, pore-forming effector (protein, listed as Pseudomonas aeruginosa)", "chain": "MSNDNEVPGSMVIVAQGPDDQYAYEVPPIDSAAVAGNMFGDLIQREIYLQKNIYYPVRSIFEQGTKEKKEINKKVSDQVDGLLKQITQGKREATRQERVDVMSAVLHKMESDLEGYKKTFTKGPFIDYEKQSSLSIYEAWVKIWEKNSWEERKKYPFQQLVRDELERAVAYYKQDSLSEAVKVLRQELNKQKALKEKEDLSQLERDYRTRKANLEMKVQSELDQAGSALPPLVSPTPEQWLERATRLVTQAIADKKQLQTTNNTLIKNSPTPLEKQKAIYNGELLVDEIASLQARLVKLNAETTRRRTEAERKAAEEQALQDAIKFTADFYKEVTEKFGARTSEMARQLAEGARGKNIRSSAEAIKSFEKHKDALNKKLSLKDRQAIAKAFDSLDKQMMAKSLEKFSKGFGVVGKAIDAASLYQEFKISTETGDWKPFFVKIETLAAGAAASWLVGIAFATATATPIGILGFALVMAVTGAMIDEDLLEKANNLVISI"}}, "key": {"[1]": {"tested_on": "P. aeruginosa P17", "test": "Mouse model of acute lung infection, P. aeruginosa P17", "format": "in vivo, Pseudomonas aeruginosa", "description": "Model of acute lung infection. Female C57/BL6 mice were inoculated intranasally with 25 μl of bacterial culture containing approximately 10^7 CFU of the selected P. aeruginosa strain^36. Antibiotic treatments were administered at either 6 h pre-infection or 1 h post-infection and were administered only once. Pyocins or tobramycin dissolved in PBS were administered via intranasal administration as described above. Two different end-points were used in these experiments. In order to determine a reduction in the bacterial load of the lungs compared to the untreated controls, all mice in the experiment were culled by carbon dioxide asphyxiation at the same time; 4-6 h post infection. To determine if mice could survive infection after pyocin or tobramycin treatment, mice were monitored closely, culled by carbon dioxide asphyxiation when required as determined by a scoring system or culled at the pre-determined 24 h time point. Uninfected mice, treated with pyocins, were used as controls in the first series of experiments in order to ensure no adverse effects from pyocin treatment. These controls were stopped in later experiments in order to reduce the number of animals used, once it was clear that the pyocins were not harmful. For CFU determination, lungs were removed aseptically and kept on ice in 750 μl of PBS until homogenised. Serial 10-fold dilutions of the homogenised lung were plated on Pseudomonas selective agar (20 g peptone, 1.5 g K2HPO4, 1.5 g MgSO4·7H2O, 10 ml glycerol, 15 g agar, 0.025 g Irgasan per litre) and incubated at 37° C. for 24 h and then room temperature for 24 h before the colonies were counted.\nSince strains of P. aeruginosa are phenotypically diverse, we tested the efficacy of the pyocins against three additional isolates: P. aeruginosa P17 and P. aeruginosa P5 (mucoid), both from cystic fibrosis patients and P. aeruginosa E2, an environmental isolate. Pyocin S2 was not active against P. aeruginosa P5 or P. aeruginosa E2 in vitro therefore was not used to treat these strains in vivo and similarly pyocin L1 was not used against P. aeruginosa P17. […] Lung homogenates from P. aeruginosa E2-infected AP41-treated mice contained high levels of viable bacteria, reduced only 10-fold relative to control mice (Table 1). […] Thus, pyocins show strong efficacy against diverse strains of P. aeruginosa with pyocin S5 treatment displaying the largest effect on reducing bacterial load."}, "[2]": {"test": "Pyocin S5-specific antibody titers by indirect ELISA", "description": "Determination of pyocin S5-specific antibody titers by indirect ELISA. For analysis of IgG and IgA responses, blood was obtained by cardiac puncture immediately after carbon dioxide asphyxiation. Serum was obtained by centrifugation of samples at 13,500 g for 10 min followed by collection of the supernatant. Serum was stored at −80° C. Greiner 96-well plates (MaxiSorp) were coated with purified recombinant pyocin S5 (7.5 μg ml^−1, 50 μl/well) protein in PBS overnight at 4° C. The plates were washed three times with phosphate buffered saline+0.05% TWEEN20 (PBST) and then blocked for 1 h at 37° C. with 150 μl of blocking buffer (1% bovine serum albumin (BSA) in PBS). After washing, five-fold serially diluted samples were added, starting at a dilution of 1/50 in blocking buffer, and incubated for 2 h at 37° C. Serum from mice given pyocin S5+Freunds complete/incomplete subcutaneously three times over four weeks was used as a positive control and uncoated wells were used as negative controls. Serum from individual mice were analysed and replicate samples were carried out on separate days. After washing with PBST, 50 μl of anti-mouse IgG (Fc specific)-peroxidase antibody ((1/1000 dilution) Sigma, UK) or anti-mouse IgA (α-chain specific)-peroxidase antibody ((1/250 dilution) Sigma, UK) in PBST/0.1% BSA was added and plates were incubated for 1 h at 37° C. Plates were developed using […] OPD (o-Phenylenediamine dihydrochloride) tablets (Sigma, UK) and reactions were stopped using 3 M HCl. Optical densities (ODs) were read at 450 nm using a FLUOstar OPTIMA plate reader (BMG labtech, Germany)."}, "[3]": {"conditions": "mice repeatedly exposed I.N., 75 μg/dose three times (FIG. 8b)"}, "[4]": {"conditions": "mice repeatedly exposed I.P., 75 μg/dose three times (FIG. 8d)"}}, "data": [{"molecule": "B1", "values": [{"measurement": "survival / protection", "setting": "[1]; pyocin 3 mg ml^−1, endpoint 24 h, infected controls culled at 4 h", "result": "survived until the 24 h endpoint"}, {"measurement": "bacterial count in lung, P17", "setting": "[1]; pyocin 3 mg ml^−1, treated mice survived to 24 h, no treatment 4.4 × 10^5 CFU/lung", "result": "No colonies"}, {"measurement": "pyocin-S5 specific IgA in serum", "setting": "[2]; [3]", "result": "no IgA antibodies detected"}, {"measurement": "pyocin-S5 specific IgG, fold less than the Freunds complete/incomplete control group", "setting": "[2]; [3]", "result": 10, "unit": "fold"}, {"measurement": "pyocin S5-specific IgA in serum", "setting": "[2]; [4]", "result": "no pyocin S5-specific IgA was detected"}, {"measurement": "pyocin S5-specific IgG, fold less than the Freunds complete/incomplete control group", "setting": "[2]; [4]", "result": 1000, "unit": "fold"}]}]}
